Assay results published in the nanobody polyreactivity screen of Harvey et al. (2022).

assay: yeast display, Sf9 membrane polyspecificity reagent, FACS + sequencing; frameworks hold sequencing errors
Procedure, shortened: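 Synthetic nanobody libraries on Saccharomyces cerevisiae BJ5465 were galactose-induced for 36–48 hours, stained 1 hour at 4 °C with 10% biotinylated, detergent-solubilized Sf9 membrane reagent and enriched on streptavidin microbeads. FACS then separated cells into low and high (top ~1%) gates by anti-HA (expression) and streptavidin (reagent binding) fluorescence. Genes were colony-PCR amplified, MiSeq 2 × 250 sequenced and CDR-length filtered. A clone's polyreactivity label is that of its gate of origin.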

Row | Sequence | polyreactivity (PSR sort gate)
1 | QDQLVDSGGGLVQAGGSLRLSCAASGYIFDRYAMGWYRQEPGKERELVAAISGRGGSTYYADSVKGRFTISRDNAKNTVYLQMYSLKREDTAVYYCARDVYVRNGQRARFDSWGQGTQVTVSS | high polyreactivity
2 | QDQLVDSGGGLVQAGGSLSLSCAASGISFYGNAMAWYRPAPGKERELVAAITSGGSTNYADSVKGRFTISRDNAKNTVYLQLYSLKPEDTAVYYCAVSYVSTLRRSRYDYWGQGTQVTVSS | low polyreactivity
3 | QDQLVDSGGVLVQAGGSLRLTCAASGSTFARNAMGWYRQAPGKERELVAAISSGGTTNYADSVKARFTISRDNAKNTVYLQMNSLKPEDTAVYYCNAGFRNVLTSGYLYDYWGQGTQVTVSS | low polyreactivity
4 | QDQLVEERGGLVQAGGSLRLSCAASGITFSTNAMGWYRQAPGKERELVAAITSVTSTYYADSVKGRFTISRDYAKNSVYLQMNSLKTEDTAVLYCAASLSRWPYFYEYNYWGQGTQVTVSS | low polyreactivity
5 | QDQLVESAGGLVQAGGSLRLSCAASARIFRYNAIGCYRQGPGKERVLVASITSAGSTNYADSVKGRFTISRDNAKNTVYLQMNSLKPEDTAVYYCNKRRAYGYYLFDYWGLGTQVTVSS | high polyreactivity
6 | QDQLVESAGGLVQAGGSLRLSCAASASTFIVYAMGWYRQAPGKEREFVATINHSGDSTYYADSVKGRFTISRDNAKNTVYLQMNSLKPEDTAVYYCNATVVFVQYVDYDYWGQGTLVTVSS | low polyreactivity
7 | QDQLVESAGGLVQAGGSLRLSCAASGRIFKSYAMGWYRQAPGKERELVASTSYTGGSTYYADSVKGRFTISRDNAKNTVYIQRNSLKPDETAVYYCAPKRVRSAGSYGYWGQGTQVTVSS | low polyreactivity
8 | QDQLVESAGGLVQAGGSLRLSCAASGRTFVTNTMGWSRQAPGKERELVAAISSRGGTTYYADSVKGRFTISRDNAKNTVYLQMNSLKPEDTAVYYCNTGTRAIQRDGFEYWGQGTQVTVSS | low polyreactivity
9 | QDQLVESAGGLVQAGGSLRLSCAATGLNLVPNTMGLYRQAPGKETQLVAAISYSGGGTYYADSVKGRFTISRDNAKNTVYLQMNSLKPEDTAVYYCAAYVKREYAPYGYWGQGTQVTVSS | low polyreactivity
10 | QDQLVESGAGLVQAGGSLRLSCAASGSTFGIYAMGWSRQAPGKEREFVAAISRSGSSTYYADSVKGRFTISRDNAKNTVYLQMNSLKPEDTAVYYCAAVVRYSQAGYYYWGQGTHVTVSS | high polyreactivity
11 | QDQLVESGGALVQPGGSLRLSCAASGRLLGRYAMGWYRQAPGKDRELVATITSGDDTNYADSVKGRFTISRDNAKNTVYLQMNSLKPEDTAVGYWGQGTQVTVSS | low polyreactivity
12 | QDQLVESGGCLVQAGGSLRLRCAASGRTFEAYAKGGYRQAPGKERELVASISSGGSTYYADSVNGRFTISRDNAKNTVYLQMNSLKPEDTAVYYCAAKRATRYYFAYYRARSERMNYWGQGTQVTVSS | high polyreactivity
13 | QDQLVESGGCLVQAGGSLRLSCAASGSIFKTYAMGWYRQAPGKERELVAAISWRGGSTYYADSVKGRFTISRDNAKNTVYLQMISLKPEDTAVYYCAAGRKFGTRTLWYRYGYWGQGTQVTVSS | high polyreactivity
14 | QDQLVESGGGFVQAGGSLRLSCAASGFIFVTYAMGWFRQAPGKERELVAAITWSTTSTYYADSVKGRFTISRDNAKNTVYLQMNSLKPDETAVYSCAKYYFQYKHDYWGQGTQVTVSS | low polyreactivity
15 | QDQLVESGGGFVQAGGSLRLSCEASGSIFNYYAMGCSRQAPGKERELVAAITTSGGNTYYADSVKGRFTISRDNAKNTVYLQMNSLKPEDTAVYYCAADYWASGGEYDYWGQGTQVTVSS | low polyreactivity
16 | QDQLVESGGGFVQAGGSRRLSCAASGRTLAYNAMGWYRPAPGKEWEFVAAITYSGGSTYYADSVKGRFTISRDNAKNTVYLQMYSLKPEDTAVYYCNAKRKRGYGSKFDYWGQGTQVTVSS | high polyreactivity
17 | QDQLVESGGGIVQAGGSLRLSCAASGRTFGINAMGWSRQAPGKERELVAVISCGDGGTYYADSVKWRFTISRDNAKNTVYLQMKSLKPEDTAVYYCSSEYQSTSLWGGHFVINPYDYWGQATQVTVSS | low polyreactivity
